Laboratory results taken from patent publication US20260108618A1 (published 2026).

B1: human Fcγ RIIb (receptor)
chain: APPKAVLKLEPQWINVLQEDSVTLTCRGTHSPESDSIQWFHNGNLIPTHTQPSYRFKANNNDSGEYTCQTGQTSLSDPVHLTVLSEWLVLQTPHLEFQEGETIVLRCHSWKDKPLVKVTFFQNGKSKKFSRSDPNFSIPQANHSHSGDYHCTGNIGYTLYSSKPVTITVQAP
B2: mouse FcγR2B/CD32b (receptor)
chain: THDLPKAVVKLEPPWIQVLKEDTVTLTCEGTHNPGNSSTQWFHNGRSIRSQVQASYTFKATVNDSGEYRCQMEQTRLSDPVDLGVISDWLLLQTPQLVFLEGETITLRCHSWRNKLLNRISFFHNEKSVRYHHYSSNFSIPKANHSHSGDYYCKGSLGRTLHQSKPVTITVQGPKSSR
notes: also called murine Fcγ RIIb
B3: rat FcγR3A/CD16a (receptor)
chain: GLQKAVVNLDPEWVRVLEEDCVILRCQGTFSPEDNSTKWFHNKSLISHQDANYVIQSARVKDSGMYRCQTAFSALSDPVQLDVHADWLLLQTTKRLFQEGDPIRLRCHSWRNTPVFKVTYLQNGKGKKYFHRNSELSISKATHADSGSYFCRGIIGRNNISSASLQISIGDPTSPSSFLPWHQ

Key:
Conjugate 45b [1] = target: T1, Conjugate 45b (human, UniProt P0DOX5 203-448 = IgG part); test: ELISA
Conjugate 45b [2] = target: T1, Conjugate 45b; test: ELISA: conjugate coated on the plate, His-tagged receptor titrated, anti-His HRP detection

Binder | binding result (Conjugate 45b [1]) | binding result (Conjugate 45b [2])
B1 | binds | 
B2 | binds | 
B3 |  | binds
